Data: US20230100941A1, “MOLECULES TARGETING MUTANT RAS PROTEIN” (AELIN THERAPEUTICS, priority 2020, published 2023)
Ends that are not written are not given here.

What was measured:
G12C mutant KRAS = biological target: T1, G12C mutant KRAS (Homo sapiens, UniProt P01116, G12C); assay: In vitro translation assay with streptavidin pull-down of biotinylated pept-ins, Western blot for KRAS; type: binding; conditions: 10 μM biotinylated pept-in
T1 construct: made in house; host or cells: cell-free: PURExpress In Vitro Protein Synthesis Kit (New England Biolabs), linear T7 PCR template
Method: (§1) In vitro translation assays were performed using the PURExpress® In Vitro Protein Synthesis Kit (New England Biolabs) according to the manufacturer's instructions. Briefly, linear DNA fragments containing T7 promotor and terminator sequences flanking the KRAS coding sequence were generated using PCR and purified using the MinElute PCR Purification Kit (Qiagen). 250 ng of linear DNA was subsequently used for the in vitro translation reaction, which was performed for 2 hours at 37° C. with shaking (1000 rpm). Indicated biotinylated pept-ins were mixed in the translation reactions from a 5 mM stock solution in 6M Urea to a final concentration of 10 μM. Upon completion of the translation reaction, biotinylated pept-ins were captured from the reaction mix using Streptavidin coated beads (Pierce) during 90 min at room temperature. Beads were next washed with TBS containing 0.1% Tween 20 and bound proteins were finally boiled off in 1×SDS loading dye (Bio-Rad) in TBS buffer. Proteins were resolved using Any kD 15-well Mini-PROTEAN gels (Bio-Rad) during SDS-PAGE and probed for KRAS after Western blotting using a mouse monoclonal KRAS-specific antibody (SC-30, Santa Cruz Biotechnology), which was detected with an HRP-coupled anti-mouse secondary antibody using chemiluminescence on a Bio-Rad Chemidoc MP imaging instrument.
(§2) To mimic this in vitro, we devised an in vitro translation setup producing either wild-type or mutant (G12V, G12C, G12D or G13D) KRAS in the presence of biotinylated RAS-targeting pept-ins. This allowed us to perform a streptavidin pull-down to capture the biotinylated pept-ins from the translation reaction and perform SDS-PAGE and Western blotting to probe the pulled-down fraction for the presence of KRAS. The biotinylated version of pept-in 04-004-N001, i.e. 04-004-N011, which harbours an APR window sequence derived from a wild-type APR, is predicted to target all RAS proteins independently from their mutation status.

G12D mutant KRAS = biological target: T2, G12D mutant KRAS (Homo sapiens, UniProt P01116, G12D); assay: as above; type: binding; conditions: 10 μM biotinylated pept-in
T2 construct: made in house; host or cells: cell-free: PURExpress In Vitro Protein Synthesis Kit (New England Biolabs), linear T7 PCR template
Method: as §1, §2

G12V mutant KRAS = biological target: T3, G12V mutant KRAS (Homo sapiens, UniProt P01116, G12V); assay: as above; type: binding; conditions: 10 μM biotinylated pept-in
T3 construct: made in house; host or cells: cell-free: PURExpress In Vitro Protein Synthesis Kit (New England Biolabs), linear T7 PCR template
Method: as §1, §2

G13D mutant KRAS = biological target: T4, G13D mutant KRAS (Homo sapiens, UniProt P01116, G13D); assay: as above; type: binding; conditions: 10 μM biotinylated pept-in
T4 construct: made in house; host or cells: cell-free: PURExpress In Vitro Protein Synthesis Kit (New England Biolabs), linear T7 PCR template
Method: as §1, §2

KRAS wild-type = biological target: T5, KRAS wild-type (Homo sapiens, UniProt P01116); assay: as above; type: binding; conditions: 10 μM biotinylated pept-in
T5 construct: made in house; host or cells: cell-free: PURExpress In Vitro Protein Synthesis Kit (New England Biolabs), linear T7 PCR template
Method: as §1, §2

[1] = biological target: T6, mutant G12V KRAS in RASless MEFs (Homo sapiens, UniProt P01116, G12V); assay: Cellular co-immunoprecipitation assay in RASless MEFs; type: cell-based, mouse; conditions: 25 μM biotinylated pept-in, 16 hours
T6 construct: host or cells: RASless mouse embryonic fibroblasts (HRAS/NRAS-null, endogenous KRAS removed)
Method: (§3) Cellular co-immunoprecipitation assays were performed using either KRAS wild-type or mutant G12V expressing RASless MEFs (see elsewhere) or human NCI-H441 lung adenocarcinoma tumor cells and N-terminally biotinylated pept-ins. Cells were seeded at a density of 300,000 cells in a clear 6-well plate (Cellstar, Greiner). One day after seeding, cells were treated with indicated pept-ins at a final concentration of 25 μM and incubated for […]. Next, cells were lysed with NP-40 lysis buffer (150 mM NaCl, 50 mM Tris HC1 pH8, 1% IGEPAL(NP40), 1xHalt phosphatase/protease inhibitors (Thermo), 1U/μl Universal Nuclease (Pierce)) and biotinylated pept-ins were captured with streptavidin-coated magnetic beads (Pierce) during 1 hours at room temperature. Beads were washed with NP40 lysis buffer at least 3 times, after which bound proteins were boiled off in 1× SDS loading dye (Bio-Rad) in NP40 lysis buffer. Proteins were resolved using Any kD 15-well Mini-PROTEAN gels (Bio-Rad) during SDS-PAGE and probed for KRAS after Western blotting using a rabbit polyclonal KRAS-specific antibody (12063-1-AP, Proteintech).
(§4) To this end, relevant MEF cells were treated with 25 μM biotinylated pept-ins overnight (16 hours). Next, cells were lysed, and pept-ins were immunoprecipitated from the lysates using streptavidin-coated beads. […]

[2] = biological target: T7, wild-type KRAS in RASless MEFs (Homo sapiens, UniProt P01116); assay: as above; type: cell-based, mouse; conditions: 25 μM biotinylated pept-in, 16 hours
T7 construct: host or cells: RASless mouse embryonic fibroblasts (HRAS/NRAS-null, endogenous KRAS removed)
Method: as §3, §4

[3] = tested on: HeLa cell line overexpressing mCherry-tagged KRAS G12V; assay: Cellular fluorescent imaging of FITC-labelled pept-ins; type: cell-based, human; conditions: 75 min after treatment
Method: Fluorescent cellular imaging was performed using HeLa cells that were transduced with lentiviral particles carrying a construct expressing KRAS G12V labeled N-terminally with mCherry. Cells were seeded in a black μclear® Cellstar® F-bottom 96-well plates (Greiner) in 100 μL full growth medium. […] Next, cells were fixed, washed and counterstained with the nuclear dye NucBlue™ (containing Hoechst 33342). Images were captured on a Leica confocal microscope.
To complement the co-immunoprecipitation approach, we also used a cellular imaging approach to show target engagement. To this end, we generated a HeLa cell line overexpressing mCherry-tagged KRAS G12V and FITC-labelled versions of the RAS-targeting pept-ins.

pull-down of G12C mutant KRAS (G12C mutant KRAS) | pull-down of G12D mutant KRAS (G12D mutant KRAS) | pull-down of G12V mutant KRAS (G12V mutant KRAS) | pull-down of G13D mutant KRAS (G13D mutant KRAS) | pull-down of KRAS wild-type (KRAS wild-type) | Substance | co-precipitation of mutant G12V KRAS [1] | co-precipitation of wild-type KRAS [2] | association with mCherry-labelled KRAS (inclusion-like perinuclear structures) [3]
efficient pull-down | less efficient | efficient pull-down | less efficient | efficient pull-down | 04-004-N011: biotinylated version of pept-in 04-004-N001 (KLSVFAIKGSKLSVFAIK; also: biotinylated, site not given here) | appeared to precipitate both wild-type and mutant G12V KRAS well | appeared to precipitate both wild-type and mutant G12V KRAS well | –
– | – | – | – | – | 04-015-N032: FITC-labelled version of pept-in 04-015-N001 (KVVVGAVGKGSKVVVGAVGK; also: FITC-labelled, site not given here) | – | – | associates with mCherry-labelled KRAS
